From article PMC10397247
Where two headings read alike, the source gives them in different places.

Key:
[1] = target: T1, P2-AA-12HAA-K; experiment: two-hybrid library CCmax; conditions: mean of both orientations;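 note: natural log of median RNA to DNA barcode read ratio; higher means stronger binding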
T1 chain: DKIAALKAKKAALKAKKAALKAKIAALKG

[2] = target: T2, P2-AA-12HAA-D; experiment: two-hybrid library CCmax; conditions: mean of both orientations;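 note: natural log of median RNA to DNA barcode read ratio; higher means stronger binding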
T2 chain: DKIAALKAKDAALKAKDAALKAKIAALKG

[3] = target: T3, P2-AA; experiment: two-hybrid library CCmax; conditions: mean of both orientations;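 note: natural log of median RNA to DNA barcode read ratio; higher means stronger binding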
T3 chain: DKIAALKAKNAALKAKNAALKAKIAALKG

[4] = target: T4, P2-AA-12HAA-S; experiment: two-hybrid library CCmax; conditions: mean of both orientations;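 note: natural log of median RNA to DNA barcode read ratio; higher means stronger binding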
T4 chain: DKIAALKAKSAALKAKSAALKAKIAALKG

[5] = target: T5, P2-AA-12HAA-T; experiment: two-hybrid library CCmax; conditions: mean of both orientations;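 note: natural log of median RNA to DNA barcode read ratio; higher means stronger binding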
T5 chain: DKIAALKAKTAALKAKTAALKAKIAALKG

[6] = target: T6, P2-AA-12HAA-V; experiment: two-hybrid library CCmax; conditions: mean of both orientations;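 note: natural log of median RNA to DNA barcode read ratio; higher means stronger binding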
T6 chain: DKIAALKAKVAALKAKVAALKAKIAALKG

[7] = target: T7, P2-AA-12HAA-Y; experiment: two-hybrid library CCmax; conditions: mean of both orientations
T7 chain: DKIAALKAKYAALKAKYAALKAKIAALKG

[8] = target: T8, P2-AA-12HAA-E; experiment: two-hybrid library CCmax
T8 chain: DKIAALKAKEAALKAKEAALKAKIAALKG

[9] = target: T9, P2-AA-12HAA-R; experiment: two-hybrid library CCmax; conditions: mean of both orientations
T9 chain: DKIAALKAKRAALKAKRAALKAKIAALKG

[10] = target: T10, P2-AA-12HAA-L; experiment: two-hybrid library CCmax
T10 chain: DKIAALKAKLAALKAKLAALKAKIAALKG

[11] = target: T11, P2-AA-12HAA-H; experiment: two-hybrid library CCmax
T11 chain: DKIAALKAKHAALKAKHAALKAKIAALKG

[12] = target: T12, P2-AA-12HAA-I; experiment: two-hybrid library CCmax; conditions: mean of both orientations
T12 chain: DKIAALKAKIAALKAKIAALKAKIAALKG

[13] = target: T13, O5; experiment: two-hybrid library CC0; conditions: mean of both orientations
T13 chain: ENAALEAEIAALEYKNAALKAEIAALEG

[14] = target: T14, O8; experiment: two-hybrid library CC0; conditions: mean of both orientations
T14 chain: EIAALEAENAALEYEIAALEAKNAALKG

[15] = target: T15, O9; experiment: two-hybrid library CC0; conditions: mean of both orientations
T15 chain: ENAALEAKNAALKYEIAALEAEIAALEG

[16] = target: T16, O6; experiment: two-hybrid library CC0; conditions: mean of both orientations
T16 chain: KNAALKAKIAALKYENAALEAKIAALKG

[17] = target: T17, O7; experiment: two-hybrid library CC0; conditions: mean of both orientations
T17 chain: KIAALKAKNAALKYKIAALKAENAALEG

[18] = target: T18, P9bHq; experiment: two-hybrid library CCNG1
T18 chain: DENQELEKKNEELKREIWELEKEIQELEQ

[19] = target: T19, P2-AA-12HGe-W; experiment: two-hybrid library CCmax
T19 chain: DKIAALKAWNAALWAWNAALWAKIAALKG

Binder | interaction score [1] | interaction score [2] | interaction score [3] | interaction score [4] | interaction score [5] | interaction score [6] | interaction score [7] | interaction score ([8]; mean of both orientations) | interaction score [9] | interaction score ([10]; mean of both orientations) | interaction score ([11]; mean of both orientations) | interaction score [12] | further results
ENAALEAEIAALEYKNAALKAEIAALEG [O5] |  |  |  |  |  |  |  |  |  |  |  |  | interaction score [13]: -2.78; interaction score [14]: -2.47; interaction score [15]: -2.73; interaction score [16]: 1.41; interaction score [17]: -2.67
DEIAALEAEAAALEAEAAALEAEIAALEG [P1-AA-12HAA-A] | 1.48 | -0.675 | 1.79 | 1.55 | 1.66 | 1.9 | 2 | 0.947 | 0.883 | 1.84 | 2.14 | 1.82 | 
DENQELEKKNEELKREIWELEKEIQELEQ [P9bHq] |  |  |  |  |  |  |  |  |  |  |  |  | interaction score [18]: -0.654
DEIAALEAEHAALEAEHAALEAEIAALEG [P1-AA-12HAA-H] | 0.96 | -1.24 | 1.85 | 1.07 | 1.16 | 1.78 | -0.416 | 0.0438 | -0.0784 | 1.83 | -0.35 | 1.75 | 
DEIAALEAEDAALEAEDAALEAEIAALEG [P1-AA-12HAA-D] | 0.46 | -1.35 | -0.884 | 0.438 | -1.11 | -0.204 | -1.44 | -1.33 | 1.84 | -1.19 | 0.205 | -0.345 | interaction score [19]: -2.4

More lines, main results first:

interaction score [1] | interaction score [2] | interaction score [3] | interaction score [4] | interaction score [5] | interaction score [6] | interaction score [7] | interaction score ([8]; mean of both orientations) | interaction score [9] | interaction score ([10]; mean of both orientations) | interaction score ([11]; mean of both orientations) | interaction score [12] | Binder | further results
-0.626 | -0.753 | 1.8 | 1.44 | 0.243 | 1.37 | 0.106 | 0.85 | -1.34 | 1.95 | 0.326 | 1.45 | DEIAALEAERAALEAERAALEAEIAALEG [P1-AA-12HAA-R] | 
1.35 | 1.1 | 2.1 | 1.44 | 1.86 | 2.21 | 1.8 |  | 1.69 |  | 1.25 | 1.82 | DEIAALEAEVAALEAEVAALEAEIAALEG [P1-AA-12HAA-V] | interaction score [8]: 1.83; interaction score [10]: 1.78
1.78 | 1.29 | 1.8 | 2.16 | 1.75 | 1.79 | 1.87 | 1.58 | 2 | 2.28 |  | 2.05 | DEIAALEAEIAALEAEIAALEAEIAALEG [P1-AA-12HAA-I] | interaction score [11]: 1.79
